This is an account of results in paper PMC6555819, “Comprehensive study of nuclear receptor DNA binding provides a revised framework for understanding receptor specificity”.

One data set has as its target LXRb:RXRa (Homo sapiens, UniProt P55055;P19793 full;full). Briefly: no ligand; PBM; 270 nM : 90 nM RXRa; PBS pH 7.4, 2% milk, 0.02% Triton X-100, 1 mM DTT, BSA, 0.4 mg/ml salmon testes DNA. The note with it: tags: His kept;His cleaved; copies: 1;1; label: surface-attached array probe. Summed up: (§1)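 The probes on custom Agilent 4×180K protein-binding microarrays were double-stranded, with 34-nt variable regions bearing direct-repeat seeds, single-nucleotide variants, half-site ablations and random human genomic background sequences. Incubation lasted 1 h with ligand-free nuclear receptor dimers in PBS pH 7.4, 2% milk, 0.02% Triton X-100, 1 mM DTT, 0.2 mg/mL BSA and 0.4 mg/ml salmon testes DNA. Antibodies against each partner (one per run) detected bound dimers, and fluorescence scans were regression-normalized. Binding z-scores take the random background probes as reference.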

The target in another data set is LXRa:RXRa (Homo sapiens, UniProt Q13133;P19793 full;full). The description is as above. The note with it: tags: His kept;His cleaved; copies: 1;1; label: surface-attached array probe. In short, it runs like this: as §1
LXRa:RXRa, sequence (Q13133 whole entry, chain 1 of 2): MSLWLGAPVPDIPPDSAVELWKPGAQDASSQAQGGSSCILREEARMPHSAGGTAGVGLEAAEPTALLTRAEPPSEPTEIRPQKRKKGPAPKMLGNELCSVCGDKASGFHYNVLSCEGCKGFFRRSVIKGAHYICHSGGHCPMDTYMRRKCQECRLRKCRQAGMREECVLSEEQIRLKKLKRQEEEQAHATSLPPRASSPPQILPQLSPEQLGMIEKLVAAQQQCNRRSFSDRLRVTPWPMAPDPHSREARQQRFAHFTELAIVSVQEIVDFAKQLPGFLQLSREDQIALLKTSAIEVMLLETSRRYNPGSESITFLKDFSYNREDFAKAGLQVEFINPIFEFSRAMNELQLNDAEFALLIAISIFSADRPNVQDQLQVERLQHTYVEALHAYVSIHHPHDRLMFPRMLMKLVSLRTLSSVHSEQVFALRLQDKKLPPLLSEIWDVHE
LXRa:RXRa, sequence (P19793 whole entry, chain 2 of 2): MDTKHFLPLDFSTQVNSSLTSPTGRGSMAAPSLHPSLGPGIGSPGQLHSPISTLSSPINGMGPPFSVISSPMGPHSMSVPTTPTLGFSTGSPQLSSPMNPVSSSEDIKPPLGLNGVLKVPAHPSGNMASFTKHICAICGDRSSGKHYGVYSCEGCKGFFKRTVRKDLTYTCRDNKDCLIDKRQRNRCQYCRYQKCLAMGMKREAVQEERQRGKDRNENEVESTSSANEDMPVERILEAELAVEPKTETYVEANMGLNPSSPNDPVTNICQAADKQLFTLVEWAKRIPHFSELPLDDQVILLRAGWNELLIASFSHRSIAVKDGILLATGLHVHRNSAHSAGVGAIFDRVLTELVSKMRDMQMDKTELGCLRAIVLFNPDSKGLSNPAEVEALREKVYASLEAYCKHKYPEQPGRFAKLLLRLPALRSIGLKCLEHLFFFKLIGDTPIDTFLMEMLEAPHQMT
The target in the next data set is FXR:RXRa (Homo sapiens, UniProt Q96RI1;P19793 full;full). The data set is described as above. The following applies: tags: His kept;His cleaved; copies: 1;1; label: surface-attached array probe. In short, it runs like this:
as §1

The target in another data set is THRa:RXRa (Homo sapiens, UniProt P10827;P19793 full;full). Description: no ligand; PBM; 90 nM : 90 nM RXRa; PBS pH 7.4, 2% milk, 0.02% Triton X-100, 1 mM DTT, BSA, 0.4 mg/ml salmon testes DNA. The note with it: tags: His kept;His cleaved; copies: 1;1; label: surface-attached array probe.
THRa:RXRa, sequence (P10827 other isoform, or with tags, fused parts or gaps, chain 1 of 2): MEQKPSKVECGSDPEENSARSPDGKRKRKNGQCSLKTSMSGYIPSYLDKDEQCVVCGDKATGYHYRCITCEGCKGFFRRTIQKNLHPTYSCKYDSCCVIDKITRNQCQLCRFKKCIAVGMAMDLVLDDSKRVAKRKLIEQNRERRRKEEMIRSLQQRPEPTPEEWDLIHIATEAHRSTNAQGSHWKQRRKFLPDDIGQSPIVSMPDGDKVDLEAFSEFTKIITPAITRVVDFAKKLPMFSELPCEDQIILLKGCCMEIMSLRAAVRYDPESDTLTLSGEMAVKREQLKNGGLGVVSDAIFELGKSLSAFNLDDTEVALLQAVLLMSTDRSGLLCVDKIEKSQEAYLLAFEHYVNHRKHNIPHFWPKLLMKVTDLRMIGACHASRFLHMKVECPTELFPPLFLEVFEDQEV
THRa:RXRa, sequence (P19793 whole entry, chain 2 of 2): as the sequence (P19793 whole entry, chain 2 of 2) above
A further data set addresses PXR:RXRa (Homo sapiens, UniProt O75469;P19793 full;full). Description: no ligand; PBM; 270 nM : 90 nM RXRa; PBS pH 7.4, 2% milk, 0.02% Triton X-100, 1 mM DTT, BSA, 0.4 mg/ml salmon testes DNA. The note with it: tags: His kept;His cleaved; copies: 1;1; label: surface-attached array probe. Summed up:
as §1

The next data set addresses VDR:RXRa (Homo sapiens, UniProt P11473;P19793 full;full). The data set is described as above. The note with it: tags: His kept;His cleaved; copies: 1;1; label: surface-attached array probe. Summed up:
as §1

The next data set concerns the target RARg:RXRa (Homo sapiens, UniProt P13631;P19793 full;full). The description is as above. The following applies: tags: His kept;His cleaved; copies: 1;1; label: surface-attached array probe. In short, it runs like this: as §1
The target of another data set is PPARa:RXRa (Homo sapiens, UniProt Q07869;P19793 full;full). The description is as above. The following applies: tags: GST kept;His cleaved; copies: 1;1; label: surface-attached array probe. In short, it runs like this:
as §1

The target in the next data set is RARb:RXRa (Homo sapiens, UniProt P10826;P19793 full;full). Described as above. The note with it: tags: His kept;His cleaved; copies: 1;1; label: surface-attached array probe. In short, it runs like this: as §1

PXR:RXRa, sequence (O75469 whole entry, chain 1 of 2): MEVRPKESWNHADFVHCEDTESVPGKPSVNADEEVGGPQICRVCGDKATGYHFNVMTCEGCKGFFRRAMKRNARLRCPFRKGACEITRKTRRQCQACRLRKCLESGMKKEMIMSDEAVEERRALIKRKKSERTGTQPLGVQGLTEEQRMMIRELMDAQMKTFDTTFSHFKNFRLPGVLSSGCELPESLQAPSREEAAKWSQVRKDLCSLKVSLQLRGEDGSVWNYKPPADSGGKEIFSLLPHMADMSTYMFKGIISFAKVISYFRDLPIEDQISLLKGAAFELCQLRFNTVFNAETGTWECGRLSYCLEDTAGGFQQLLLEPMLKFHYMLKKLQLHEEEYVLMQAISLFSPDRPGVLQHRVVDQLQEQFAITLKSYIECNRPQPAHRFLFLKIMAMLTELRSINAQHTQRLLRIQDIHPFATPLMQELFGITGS
PXR:RXRa, sequence (P19793 whole entry, chain 2 of 2): as the sequence (P19793 whole entry, chain 2 of 2) above
LXRb:RXRa, sequence (P55055 whole entry, chain 1 of 2): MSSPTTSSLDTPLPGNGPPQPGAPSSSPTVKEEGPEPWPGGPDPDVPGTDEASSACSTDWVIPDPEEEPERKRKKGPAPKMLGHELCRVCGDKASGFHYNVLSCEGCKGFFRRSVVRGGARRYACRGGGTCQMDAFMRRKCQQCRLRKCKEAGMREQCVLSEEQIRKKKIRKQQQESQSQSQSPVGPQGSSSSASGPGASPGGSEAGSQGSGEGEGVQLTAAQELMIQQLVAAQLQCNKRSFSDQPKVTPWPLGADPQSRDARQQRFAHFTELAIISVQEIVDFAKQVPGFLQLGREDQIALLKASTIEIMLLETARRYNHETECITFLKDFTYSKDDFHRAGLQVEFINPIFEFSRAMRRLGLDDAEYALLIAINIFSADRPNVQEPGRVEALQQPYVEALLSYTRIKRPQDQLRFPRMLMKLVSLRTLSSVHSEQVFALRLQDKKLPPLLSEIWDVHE
LXRb:RXRa, sequence (P19793 whole entry, chain 2 of 2): as the sequence (P19793 whole entry, chain 2 of 2) above
VDR:RXRa, sequence (P11473 whole entry, chain 1 of 2): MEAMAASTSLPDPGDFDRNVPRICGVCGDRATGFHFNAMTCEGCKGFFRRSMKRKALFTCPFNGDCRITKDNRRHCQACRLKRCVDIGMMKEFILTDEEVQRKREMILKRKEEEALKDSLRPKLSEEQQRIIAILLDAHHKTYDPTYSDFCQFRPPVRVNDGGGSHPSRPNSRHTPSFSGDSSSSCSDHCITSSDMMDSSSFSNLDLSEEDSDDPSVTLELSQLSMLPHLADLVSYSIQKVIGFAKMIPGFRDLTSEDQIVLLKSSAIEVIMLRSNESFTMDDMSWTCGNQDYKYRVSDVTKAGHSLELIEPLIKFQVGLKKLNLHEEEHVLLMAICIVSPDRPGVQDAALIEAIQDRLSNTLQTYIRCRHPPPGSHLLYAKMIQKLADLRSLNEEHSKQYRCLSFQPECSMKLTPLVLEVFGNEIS
VDR:RXRa, sequence (P19793 whole entry, chain 2 of 2): as the sequence (P19793 whole entry, chain 2 of 2) above

B1: NRC3_random_hg19_412_o1 (dsDNA)
DNA 1: GCACAACAGATGCTGGAGAGGATATGGAGATCCTTTGCGATTGACAGCGTAGAATGAAGG
DNA 2: CCTTCATTCTACGCTGTCAATCGCAAAGGATCTCCATATCCTCTCCAGCATCTGTTGTGC
B1: the binding signal in the data set with LXRb:RXRa was -0.93 PBM z-score against 500 random probes; with LXRa:RXRa, -0.73 PBM z-score against 500 random probes; with FXR:RXRa it was -0.81 PBM z-score against 500 random probes; with THRa:RXRa, -0.82 PBM z-score against 500 random probes.

B2: NRC3_wobSeed116_DR4_A21G_o1 (dsDNA)
DNA 1: GCAGAATGAGGTTACCAAAGGTCAGGGAAACGCTTGGCGATTGACAGCGTAGAATGAAGG
DNA 2: CCTTCATTCTACGCTGTCAATCGCCAAGCGTTTCCCTGACCTTTGGTAACCTCATTCTGC
For the molecule B2, the binding signal was 8.32 PBM z-score against 500 random probes in the data set with LXRb:RXRa, 9.08 PBM z-score against 500 random probes in the data set with LXRa:RXRa and 5.21 PBM z-score against 500 random probes in the data set with THRa:RXRa.

B3: NRC3_random_hg19_322_o1 (dsDNA)
DNA 1: GCTGTAAAGTGGTCCACTGACAGCTTCCACTCTTCTGCGATTGACAGCGTAGAATGAAGG
DNA 2: CCTTCATTCTACGCTGTCAATCGCAGAAGAGTGGAAGCTGTCAGTGGACCACTTTACAGC
For B3, the binding signal in the data set with LXRb:RXRa is -0.71 PBM z-score against 500 random probes; with PXR:RXRa, -0.56 PBM z-score against 500 random probes; with VDR:RXRa, -0.74 PBM z-score against 500 random probes; with THRa:RXRa, -0.7 PBM z-score against 500 random probes.

B4: NRC3_wobSeed87_DR3_T8G_o1 (dsDNA)
DNA 1: GCCGAACGAGGTCATCCAGGACAGTGAATACATTGAGCGATTGACAGCGTAGAATGAAGG
DNA 2: CCTTCATTCTACGCTGTCAATCGCTCAATGTATTCACTGTCCTGGATGACCTCGTTCGGC
As for B4, the binding signal with PXR:RXRa was 6.36 PBM z-score against 500 random probes; with FXR:RXRa, 8.44 PBM z-score against 500 random probes; in the data set with VDR:RXRa, 6.85 PBM z-score against 500 random probes; with THRa:RXRa it was 4.78 PBM z-score against 500 random probes.

B5: NRC3_wobSeed101_DR4_T23C_o1 (dsDNA)
DNA 1: GCCCTTACGGGTCACTCCAGGTCATAGCATCGGAGTGCGATTGACAGCGTAGAATGAAGG
DNA 2: CCTTCATTCTACGCTGTCAATCGCACTCCGATGCTATGACCTGGAGTGACCCGTAAGGGC
As to B5, the binding signal is 7.16 PBM z-score against 500 random probes in the data set with LXRb:RXRa, 8.42 PBM z-score against 500 random probes with LXRa:RXRa and 5.34 PBM z-score against 500 random probes in the data set with THRa:RXRa.

B6: NRC3_wobSeed118_DR4_G13C_o1 (dsDNA)
DNA 1: GCTTACCAAGGTCAGCTGAGGTCGTTGATCCAACTCGCGATTGACAGCGTAGAATGAAGG
DNA 2: CCTTCATTCTACGCTGTCAATCGCGAGTTGGATCAACGACCTCAGCTGACCTTGGTAAGC
With B6, the binding signal with PXR:RXRa was 6.89 PBM z-score against 500 random probes; with VDR:RXRa it was 6.65 PBM z-score against 500 random probes; in the data set with THRa:RXRa, 5.55 PBM z-score against 500 random probes.

B7: NRC3_wobSeed142_DR5_G13C_o1 (dsDNA)
DNA 1: GCATACCAAGGTCATCGTGAGGTCGTTGATACTAACGCGATTGACAGCGTAGAATGAAGG
DNA 2: CCTTCATTCTACGCTGTCAATCGCGTTAGTATCAACGACCTCACGATGACCTTGGTATGC
Take B7: the binding signal was 6.51 PBM z-score against 500 random probes with PXR:RXRa, 7.52 PBM z-score against 500 random probes with RARg:RXRa, 7.1 PBM z-score against 500 random probes with VDR:RXRa and 5.13 PBM z-score against 500 random probes with THRa:RXRa.

B8: NRC3_random_hg19_90_o1 (dsDNA)
DNA 1: GCTGAGTATTGTAGATTCATTGTTGAGATTCTAGATGCGATTGACAGCGTAGAATGAAGG
DNA 2: CCTTCATTCTACGCTGTCAATCGCATCTAGAATCTCAACAATGAATCTACAATACTCAGC
In the case of B8, the binding signal with PXR:RXRa was -0.1 PBM z-score against 500 random probes; in the data set with THRa:RXRa, -0.22 PBM z-score against 500 random probes.

B9: NRC3_wobSeed98_DR4_T9A_o1 (dsDNA)
DNA 1: GCACTAGTAGGTCAGCTGAGGTCACACACAATTCGGGCGATTGACAGCGTAGAATGAAGG
DNA 2: CCTTCATTCTACGCTGTCAATCGCCCGAATTGTGTGTGACCTCAGCTGACCTACTAGTGC
Take B9: the binding signal was 7.12 PBM z-score against 500 random probes with PXR:RXRa, 6.98 PBM z-score against 500 random probes in the data set with VDR:RXRa and 5.78 PBM z-score against 500 random probes with THRa:RXRa.

B10: NRC3_wobSeed98_DR4_T9G_o1 (dsDNA)
DNA 1: GCACTAGTGGGTCAGCTGAGGTCACACACAATTCGGGCGATTGACAGCGTAGAATGAAGG
DNA 2: CCTTCATTCTACGCTGTCAATCGCCCGAATTGTGTGTGACCTCAGCTGACCCACTAGTGC
As to B10, the binding signal in the data set with PXR:RXRa is 6.95 PBM z-score against 500 random probes; with VDR:RXRa, 6.63 PBM z-score against 500 random probes; in the data set with THRa:RXRa, 5.78 PBM z-score against 500 random probes.

B11: NRC3_wobSeed97_DR4_A18G_o1 (dsDNA)
DNA 1: GCCAAACTAGGTCACGAGAGGTCAAAGTCGAATGACGCGATTGACAGCGTAGAATGAAGG
DNA 2: CCTTCATTCTACGCTGTCAATCGCGTCATTCGACTTTGACCTCTCGTGACCTAGTTTGGC
With B11, the binding signal was 7.59 PBM z-score against 500 random probes with PXR:RXRa, 7.96 PBM z-score against 500 random probes with FXR:RXRa, 7.3 PBM z-score against 500 random probes with VDR:RXRa and 5.49 PBM z-score against 500 random probes with THRa:RXRa.

B12: NRC3_wobSeed49_DR2_T8C_o1 (dsDNA)
DNA 1: GCCAAACCAGGTCAAGAGGTCAAAGTCCGCTTCCCGGCGATTGACAGCGTAGAATGAAGG
DNA 2: CCTTCATTCTACGCTGTCAATCGCCGGGAAGCGGACTTTGACCTCTTGACCTGGTTTGGC
For the molecule B12, the binding signal was 6.81 PBM z-score against 500 random probes with PXR:RXRa, 7.9 PBM z-score against 500 random probes with FXR:RXRa and 4.82 PBM z-score against 500 random probes with THRa:RXRa.

B13: NRC3_random_hg19_185_o1 (dsDNA)
DNA 1: GCTAGTGAGTGAGTTCTCACAAGAAATGGTTGTTTAGCGATTGACAGCGTAGAATGAAGG
DNA 2: CCTTCATTCTACGCTGTCAATCGCTAAACAACCATTTCTTGTGAGAACTCACTCACTAGC
As for B13, the binding signal was -0.01 PBM z-score against 500 random probes with PXR:RXRa and -0.23 PBM z-score against 500 random probes in the data set with THRa:RXRa.

B14: NRC3_wobSeed85_DR3_G15C_o1 (dsDNA)
DNA 1: GCCGTCCAAGGTCACAGAGGTCAGTGAATGCCGAGTGCGATTGACAGCGTAGAATGAAGG
DNA 2: CCTTCATTCTACGCTGTCAATCGCACTCGGCATTCACTGACCTCTGTGACCTTGGACGGC
With B14, the binding signal in the data set with PPARa:RXRa was 6.53 PBM z-score against 500 random probes; with LXRb:RXRa, 5.81 PBM z-score against 500 random probes; with RARb:RXRa it was 5.99 PBM z-score against 500 random probes; with PXR:RXRa, 6.95 PBM z-score against 500 random probes; in the data set with RARg:RXRa it was 7.46 PBM z-score against 500 random probes; with FXR:RXRa, 7.83 PBM z-score against 500 random probes. Also, in the data set with THRa:RXRa, the binding signal was 4.91 PBM z-score against 500 random probes.

B15: NRC3_wobSeed85_DR3_G24T_o1 (dsDNA)
DNA 1: GCCGTCCAAGGTCAGAGAGGTCATTGAATGCCGAGTGCGATTGACAGCGTAGAATGAAGG
DNA 2: CCTTCATTCTACGCTGTCAATCGCACTCGGCATTCAATGACCTCTCTGACCTTGGACGGC
Take B15: the binding signal is 5.65 PBM z-score against 500 random probes with RARb:RXRa, 7.16 PBM z-score against 500 random probes in the data set with PXR:RXRa, 8.16 PBM z-score against 500 random probes with VDR:RXRa and 4.8 PBM z-score against 500 random probes with THRa:RXRa.

B16: NRC3_random_hg19_394_o1 (dsDNA)
DNA 1: GCGAGATCGAGACCATCTTGGCTAACACGGTGAAACGCGATTGACAGCGTAGAATGAAGG
DNA 2: CCTTCATTCTACGCTGTCAATCGCGTTTCACCGTGTTAGCCAAGATGGTCTCGATCTCGC
As for B16, the binding signal with PXR:RXRa was -0.39 PBM z-score against 500 random probes; with THRa:RXRa, -0.09 PBM z-score against 500 random probes.

B17: NRC3_random_hg19_109_o1 (dsDNA)
DNA 1: GCTGGTGTTTCATCACTGTGGCAACTTCCCACCTGGGCGATTGACAGCGTAGAATGAAGG
DNA 2: CCTTCATTCTACGCTGTCAATCGCCCAGGTGGGAAGTTGCCACAGTGATGAAACACCAGC
With B17, the binding signal was -0.28 PBM z-score against 500 random probes with PXR:RXRa and -0.41 PBM z-score against 500 random probes in the data set with THRa:RXRa.

B18: NRC3_random_hg19_439_o1 (dsDNA)
DNA 1: GCTATGGTTTGGCTGTGTCTCCATTCAAATCTCAACGCGATTGACAGCGTAGAATGAAGG
DNA 2: CCTTCATTCTACGCTGTCAATCGCGTTGAGATTTGAATGGAGACACAGCCAAACCATAGC
In the case of B18, the binding signal in the data set with PXR:RXRa is 0.5 PBM z-score against 500 random probes; in the data set with THRa:RXRa, 0.36 PBM z-score against 500 random probes.
